{"source": "paper PMC6269214", "about": "(Biochimica et biophysica acta. Proteins and proteomics, 2018)", "key": {"[1]": {"target": "the molecule itself", "assay": "SEC-MALS"}, "[2]": {"target": "the molecule itself", "assay": "SEC"}}, "data": [{"protein": "cavsol (full-length, soluble human caveolin-1 variant gen-2d) (other) MSGGKYVDSEGHLYTVPIREQGNIYKPNNKAMADELSEKQVYDAHTKEIDLVNRDPKHLNDDVVKIDFEDVIAEPEGTHSFDGIWKASFTTFTVTKYWFYRLLSAHEGIPMALSRGVEVAQVSDHHIRADDPCIKSFLIEIQCISRVYSIYVHTVCDPLFEAVGKIFSNVRINLQKEI", "values": [{"measurement": "stoichiometry N", "setting": "[1]", "value": "~90", "unit": "cav monomers"}, {"measurement": "stoichiometry N", "setting": "[2]", "value": 24, "unit": "monomers"}]}]}
